Assay results published in the supplement of paper PMC11196671.

Experiments:
[1] = PET hydrolysis product formed (TPA+MHET+BHET, UV-Vis) per mg enzyme (mmol/mg enzyme); higher = more PET depolymerisation activity; extreme values may be limits of the assay; conditions: 2 h
Method: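 Purified PET hydrolases (His-SUMO cleaved, E. coli C41(DE3) small-scale expression), 2.5 ug enzyme on 3.5 mg amorphous PET film (aFilm) or crystalline PET powder (cryPow) in 0.5 mL of 50 mM buffer (NaCitrate pH 4.5/5.5, NaPhosphate 6.5/7.5, glycine 8.5/9.5) at 60 or 70 C with shaking for 2 h. Soluble aromatic products (TPA+MHET+BHET) were quantified by UV-Vis at 260/280 nm, blank-subtracted against the no-enzyme control, and normalised per mg enzyme; duplicate reactions.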

[2] = BHET released, HPLC; higher = more BHET released; extreme values may be limits of the assay; conditions: 24 h
Method: (§1)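 Purified PET hydrolases, 2.5 ug enzyme on 3.5 mg amorphous PET film (aFilm) or crystalline PET powder (cryPow) in 0.5 mL of 50 mM buffer (NaCitrate pH 4.5/5.5, NaPhosphate 6.5/7.5, glycine 8.5/9.5) at 60 or 70 C with shaking for 24 h. Total aromatic product by UV-Vis (260/280 nm, blank-subtracted, normalised per mg enzyme) and individual TPA, MHET, BHET concentrations by UHPLC-DAD at 240 nm; duplicate reactions.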

[3] = terephthalic acid (TPA) released, HPLC; higher = more TPA released; extreme values may be limits of the assay; conditions: 24 h
Method: as §1

[4] = MHET released, HPLC; higher = more MHET released; extreme values may be limits of the assay; conditions: 24 h
Method: as §1

ADNPYQRGPDPTNASIEAATGPFAVGTQPIVGASGFGGGQIYYPTDTSQTYGAVVIVPGFISVWAQLAWLGPRLASQGFVVIGIETSTITDLPDPRGDQALAALDWATTRSPVRSRIDRTRLAAAGWSMGGGGLRRAACQRPSLKAIVGMAPWNTEKNWSCVTVPTLFFGGSSDAVASPNDHAKPFYNSITRAEKDYIELCNADHFFPTSANTTMAKYFISWLKRWVDNDTRYTQFLCPGPSTGLFAPVCASMNTCPF [CaPETaseM9]
Conditions	BHET released, [2] [mM]	MHET released, [4] [mM]	PET hydrolysis product formed, [1]	terephthalic acid, [3] [mM]
PET substrate: aFilm, 60 °C, pH 4.5	0	0.00378	0	0.00338
PET substrate: aFilm, 60 °C, pH 5.5	0	0.0574	0	0.0407
PET substrate: aFilm, 60 °C, pH 6.5	0	0.106	0.00371	0.0535
PET substrate: aFilm, 60 °C, pH 7.5	0	0.299	0.0032	0.165
PET substrate: aFilm, 60 °C, pH 8.5	0	0.108	0.0152	0.0537
PET substrate: aFilm, 60 °C, pH 9.5	0	0.123	0	0.297
PET substrate: aFilm, 70 °C, pH 4.5	0	0	0	0
PET substrate: aFilm, 70 °C, pH 5.5	0	0	0	0
PET substrate: aFilm, 70 °C, pH 6.5	0	0	0	0
PET substrate: aFilm, 70 °C, pH 7.5	0	0	0	0
PET substrate: aFilm, 70 °C, pH 8.5	0	0.00345	0	0
PET substrate: aFilm, 70 °C, pH 9.5	0	0	0	0.00887
PET substrate: cryPow, 60 °C, pH 4.5	0.00607	0.03643	0.0116	0.0214
PET substrate: cryPow, 60 °C, pH 5.5	0	0.0852	0.0306	0.0432
PET substrate: cryPow, 60 °C, pH 6.5	0.00315	0.103	0.0384	0.0325
PET substrate: cryPow, 60 °C, pH 7.5	0	0.183	0.0693	0.0946
PET substrate: cryPow, 60 °C, pH 8.5	0	0.0922	0.0382	0.0338
PET substrate: cryPow, 60 °C, pH 9.5	0	0.0663	0.0436	0.336
PET substrate: cryPow, 70 °C, pH 4.5	0	0	0	0
PET substrate: cryPow, 70 °C, pH 5.5	0	0.0148	0.00828	0.0031
PET substrate: cryPow, 70 °C, pH 6.5	0	0.0346	0.0134	0.0109
PET substrate: cryPow, 70 °C, pH 7.5	0	0.0406	0.0293	0.0454
PET substrate: cryPow, 70 °C, pH 8.5	0	0.0381	0.0155	0.0207
PET substrate: cryPow, 70 °C, pH 9.5	0	0	0.0183	0.0926

ANPYERGPNPTDALLEARSGPFSVSEENVSRLSASGFGGGTIYYPRENNTYGAVAISPGYTGTEASIAWLGERIASHGFVVITIDTITTLDQPDSRAEQLNAALNHMINRASSTVRSRIDSSRLAVMGHSMGGGGSLRLASQRPDLKAAIPLTPWHLNKNWSSVTVPTLIIGADLDTIAPVATHAKPFYNSLPSSISKAYLELDGATHFAPNIPNKIIGKYSVAWLKRFVDNDTRYTQFLCPGPRDGLFGEVEEYRSTCPF [TfCut2]
Conditions	BHET released, [2] [mM]	MHET released, [4] [mM]	PET hydrolysis product formed, [1]	terephthalic acid, [3] [mM]
PET substrate: aFilm, 60 °C, pH 4.5	0	0	0	0
PET substrate: aFilm, 60 °C, pH 5.5	0.00214	0.0544	0	0.0433
PET substrate: aFilm, 60 °C, pH 6.5	0.00244	0.0658	0.00338	0.0508
PET substrate: aFilm, 60 °C, pH 7.5	0.00625	0.213	0.0101	0.186
PET substrate: aFilm, 60 °C, pH 8.5	0	0.105	0.00697	0.0862
PET substrate: aFilm, 60 °C, pH 9.5	0	0.143	0.0114	0.454
PET substrate: aFilm, 70 °C, pH 4.5	0	0	0	0
PET substrate: aFilm, 70 °C, pH 5.5	0	0.00251	0	0
PET substrate: aFilm, 70 °C, pH 6.5	0	0.00766	0	0
PET substrate: aFilm, 70 °C, pH 7.5	0	0	0.00351	0.00319
PET substrate: aFilm, 70 °C, pH 8.5	0	0.0146	0.00376	0.00941
PET substrate: aFilm, 70 °C, pH 9.5	0	0	0.00877	0.03467
PET substrate: cryPow, 60 °C, pH 4.5	0	0	0	0
PET substrate: cryPow, 60 °C, pH 5.5	0	0.0126	0	0.0031
PET substrate: cryPow, 60 °C, pH 6.5	0	0.0226	0	0.00386
PET substrate: cryPow, 60 °C, pH 7.5	0.0022	0.104	0	0.0408
PET substrate: cryPow, 60 °C, pH 8.5	0	0.0471	0	0.0159
PET substrate: cryPow, 60 °C, pH 9.5	0	0.0249	0.00389	0.0959
PET substrate: cryPow, 70 °C, pH 4.5	0	0	0	0
PET substrate: cryPow, 70 °C, pH 5.5	0	0	0	0
PET substrate: cryPow, 70 °C, pH 6.5	0	0	0	0
PET substrate: cryPow, 70 °C, pH 7.5	0	0	0	0
PET substrate: cryPow, 70 °C, pH 8.5	0	0.00527	0	0
PET substrate: cryPow, 70 °C, pH 9.5	0	0	0	0.0139

QDNPYERGPDPTEDSIEAIRGPFSVATERVSSFASGFGGGTIYYPRETDEGTFGAVAVAPGFTASQGSMSWYGERVASHGFIVFTIDTNTRLDAPGQRGRQLLAALDYLVERSDRKVRERLDPNRLAVMGHSMGGGGSLEATVMRPSLKASIPLTPWHLDKTWGQVQVPTFIIGAELDTIAPVSTHAKPFYESLPSSLPKAYMELCGATHFAPNIPNTTIAKYVISWLKRFVDEDTRYSQFLCPNPTDRAICEYRSTCPY [Cut190*SS]
Conditions	BHET released, [2] [mM]	MHET released, [4] [mM]	PET hydrolysis product formed, [1]	terephthalic acid, [3] [mM]
PET substrate: aFilm, 60 °C, pH 4.5	0	0	0	0
PET substrate: aFilm, 60 °C, pH 5.5	0	0.00789	0	0
PET substrate: aFilm, 60 °C, pH 6.5	0.00205	0.04	0	0.00808
PET substrate: aFilm, 60 °C, pH 7.5	0.0117	0.208	0.00672	0.0544
PET substrate: aFilm, 60 °C, pH 8.5	0	0.0945	0	0.0241
PET substrate: aFilm, 60 °C, pH 9.5	0	0.155	0.0106	0.319
PET substrate: aFilm, 70 °C, pH 4.5	0	0	0	0
PET substrate: aFilm, 70 °C, pH 5.5	0	0	0	0
PET substrate: aFilm, 70 °C, pH 6.5	0	0	0	0
PET substrate: aFilm, 70 °C, pH 7.5	0.00861	0.234	0.00376	0.142
PET substrate: aFilm, 70 °C, pH 8.5	0	0.00747	0	0
PET substrate: aFilm, 70 °C, pH 9.5	0	0.0894	0.0215	0.477
PET substrate: cryPow, 60 °C, pH 4.5	0	0	0	0
PET substrate: cryPow, 60 °C, pH 5.5	0.00623	0.0526	0	0.0115
PET substrate: cryPow, 60 °C, pH 6.5	0.00767	0.1	0.0096	0.016
PET substrate: cryPow, 60 °C, pH 7.5	0.0058	0.202	0.0258	0.0676
PET substrate: cryPow, 60 °C, pH 8.5	0	0.171	0.0105	0.04
PET substrate: cryPow, 60 °C, pH 9.5	0	0.11	0.0109	0.302
PET substrate: cryPow, 70 °C, pH 4.5	0	0	0	0
PET substrate: cryPow, 70 °C, pH 5.5	0	0.00708	0	0
PET substrate: cryPow, 70 °C, pH 6.5	0	0.0193	0	0.00353
PET substrate: cryPow, 70 °C, pH 7.5	0	0.0639	0.00904	0.0546
PET substrate: cryPow, 70 °C, pH 8.5	0	0.02402	0	0.01301
PET substrate: cryPow, 70 °C, pH 9.5	0	0.00359	0.00521	0.0846

QTNPYARGPDPTAASLEASAGPFTVRSFTVSRPSGYGAGTVYYPTNAGGTVGAIAIVPGYTARQSSIKWWGPRLASHGFVVITIDTNSTLDQPESRSSQQMAALEQVASLNGTSSSPIYGKVDTARMGVMGWSMGGGGSLISACNNPSLKAAVVQAPWHSSTNFSCVTVPTLIFACENDSIAPVNSSALPIYDSMSENAKQFLEICGGSHSCANTGNSDQALIGKKGVAWMKRFMDNDTRYSTFACENPNSTRVCDFRTANCS [Z1-PETase]
Conditions	BHET released, [2] [mM]	MHET released, [4] [mM]	PET hydrolysis product formed, [1]	terephthalic acid, [3] [mM]
PET substrate: aFilm, 60 °C, pH 4.5	0	0	0	0
PET substrate: aFilm, 60 °C, pH 5.5	0	0	0	0
PET substrate: aFilm, 60 °C, pH 6.5	0	0.321	0	0.227
PET substrate: aFilm, 60 °C, pH 7.5	0	1.88	0.032	0.685
PET substrate: aFilm, 60 °C, pH 8.5	0	0.249	0.03625	0.179
PET substrate: aFilm, 60 °C, pH 9.5	0	1.03	0.0733	1.22
PET substrate: aFilm, 70 °C, pH 4.5	0	0	0	0
PET substrate: aFilm, 70 °C, pH 5.5	0	0	0	0
PET substrate: aFilm, 70 °C, pH 6.5	0	0	0	0
PET substrate: aFilm, 70 °C, pH 7.5	0	0.0119	0	0.0109
PET substrate: aFilm, 70 °C, pH 8.5	0	0.00565	0	0.00307
PET substrate: aFilm, 70 °C, pH 9.5	0	0	0.00338	0.0495
PET substrate: cryPow, 60 °C, pH 4.5	0	0	0	0
PET substrate: cryPow, 60 °C, pH 5.5	0	0.053	0	0.0408
PET substrate: cryPow, 60 °C, pH 6.5	0.00328	0.476	0.0995	0.114
PET substrate: cryPow, 60 °C, pH 7.5	0	0.522	0.135	0.236
PET substrate: cryPow, 60 °C, pH 8.5	0	0.343	0.102	0.225
PET substrate: cryPow, 60 °C, pH 9.5	0	0.071	0.13	0.72
PET substrate: cryPow, 70 °C, pH 4.5	0	0	0	0
PET substrate: cryPow, 70 °C, pH 5.5	0	0	0	0
PET substrate: cryPow, 70 °C, pH 6.5	0	0.125	0.0288	0.0337
PET substrate: cryPow, 70 °C, pH 7.5	0	0.181	0.0688	0.17
PET substrate: cryPow, 70 °C, pH 8.5	0	0.123	0.0583	0.0464
PET substrate: cryPow, 70 °C, pH 9.5	0	0.0142	0.0657	0.367
